{"source": "paper doi:10.1101/2023.01.09.523258", "target": "T1, Albumin from chicken egg (Ovalbumin/OVA) (chicken), P01012", "T1 chain": "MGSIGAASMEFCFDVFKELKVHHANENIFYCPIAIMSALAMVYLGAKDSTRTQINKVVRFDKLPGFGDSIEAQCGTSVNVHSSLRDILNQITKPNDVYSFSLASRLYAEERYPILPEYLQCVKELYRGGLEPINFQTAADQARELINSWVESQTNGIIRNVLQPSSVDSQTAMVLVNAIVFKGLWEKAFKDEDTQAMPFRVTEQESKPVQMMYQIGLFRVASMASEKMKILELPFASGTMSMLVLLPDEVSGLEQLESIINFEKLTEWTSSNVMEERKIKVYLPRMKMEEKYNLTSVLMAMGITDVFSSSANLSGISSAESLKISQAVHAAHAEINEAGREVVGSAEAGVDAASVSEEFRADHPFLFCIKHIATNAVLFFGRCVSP", "assay": "native MS", "conditions": "remark: other sources report otherwise"}
{"binder": "Albumin from chicken egg (Ovalbumin/OVA), P01012 1-386 (natural protein) MGSIGAASMEFCFDVFKELKVHHANENIFYCPIAIMSALAMVYLGAKDSTRTQINKVVRFDKLPGFGDSIEAQCGTSVNVHSSLRDILNQITKPNDVYSFSLASRLYAEERYPILPEYLQCVKELYRGGLEPINFQTAADQARELINSWVESQTNGIIRNVLQPSSVDSQTAMVLVNAIVFKGLWEKAFKDEDTQAMPFRVTEQESKPVQMMYQIGLFRVASMASEKMKILELPFASGTMSMLVLLPDEVSGLEQLESIINFEKLTEWTSSNVMEERKIKVYLPRMKMEEKYNLTSVLMAMGITDVFSSSANLSGISSAESLKISQAVHAAHAEINEAGREVVGSAEAGVDAASVSEEFRADHPFLFCIKHIATNAVLFFGRCVSP", "values": [{"measurement": "relative abundance of the dimer", "value": "5 to 8", "unit": "%"}, {"measurement": "stoichiometry N", "value": 2}]}
